Data from patent US20150196651A1 (published 2015).
Numbered stars: 1 amine (or outer) side, 2 acyl side, 3 side chain; on linkers, the order of the positions; unused ones are H or OH. Square brackets hold non-standard residues; d marks the D form. Side chains are listed from the residue outwards. Ends that are not written are not given here. * marks the point of attachment. γGlu = O=C(O)[C@H](CCC(=O)[*:2])N[*:1]; Palmitoyl = CCCCCCCCCCCCCCCC(=O)*; Myristoyl = CCCCCCCCCCCCCC(=O)*; Lauroyl = CCCCCCCCCCCC(=O)*; Decanoyl = CCCCCCCCCC(=O)*; Nle = CCCC[C@H](N)C(=O)O; Octanoyl = CCCCCCCC(=O)*; GABA = NCCCC(=O)O

B1: analog no. 41 (peptide)
peptide: Lauroyl-TPDINPAWYASRGIRPVGRF-NH2
SMILES: CCCCCCCCCCCC(=O)N[C@H](C(=O)N1CCC[C@H]1C(=O)N[C@@H](CC(=O)O)C(=O)N[C@H](C(=O)N[C@@H](CC(N)=O)C(=O)N1CCC[C@H]1C(=O)N[C@@H](C)C(=O)N[C@@H](Cc1c[nH]c2ccccc12)C(=O)N[C@@H](Cc1ccc(O)cc1)C(=O)N[C@@H](C)C(=O)N[C@@H](CO)C(=O)N[C@@H](CCCNC(=N)N)C(=O)NCC(=O)N[C@H](C(=O)N[C@@H](CCCNC(=N)N)C(=O)N1CCC[C@H]1C(=O)N[C@H](C(=O)NCC(=O)N[C@@H](CCCNC(=N)N)C(=O)N[C@@H](Cc1ccccc1)C(N)=O)C(C)C)[C@@H](C)CC)[C@@H](C)CC)[C@@H](C)O
B2: analog no. 39 (peptide)
peptide: Octanoyl-TPDINPAWYASRGIRPVGRF-NH2
SMILES: CCCCCCCC(=O)N[C@H](C(=O)N1CCC[C@H]1C(=O)N[C@@H](CC(=O)O)C(=O)N[C@H](C(=O)N[C@@H](CC(N)=O)C(=O)N1CCC[C@H]1C(=O)N[C@@H](C)C(=O)N[C@@H](Cc1c[nH]c2ccccc12)C(=O)N[C@@H](Cc1ccc(O)cc1)C(=O)N[C@@H](C)C(=O)N[C@@H](CO)C(=O)N[C@@H](CCCNC(=N)N)C(=O)NCC(=O)N[C@H](C(=O)N[C@@H](CCCNC(=N)N)C(=O)N1CCC[C@H]1C(=O)N[C@H](C(=O)NCC(=O)N[C@@H](CCCNC(=N)N)C(=O)N[C@@H](Cc1ccccc1)C(N)=O)C(C)C)[C@@H](C)CC)[C@@H](C)CC)[C@@H](C)O
B3: analog no. 40 (peptide)
peptide: Decanoyl-TPDINPAWYASRGIRPVGRF-NH2
SMILES: CCCCCCCCCC(=O)N[C@H](C(=O)N1CCC[C@H]1C(=O)N[C@@H](CC(=O)O)C(=O)N[C@H](C(=O)N[C@@H](CC(N)=O)C(=O)N1CCC[C@H]1C(=O)N[C@@H](C)C(=O)N[C@@H](Cc1c[nH]c2ccccc12)C(=O)N[C@@H](Cc1ccc(O)cc1)C(=O)N[C@@H](C)C(=O)N[C@@H](CO)C(=O)N[C@@H](CCCNC(=N)N)C(=O)NCC(=O)N[C@H](C(=O)N[C@@H](CCCNC(=N)N)C(=O)N1CCC[C@H]1C(=O)N[C@H](C(=O)NCC(=O)N[C@@H](CCCNC(=N)N)C(=O)N[C@@H](Cc1ccccc1)C(N)=O)C(C)C)[C@@H](C)CC)[C@@H](C)CC)[C@@H](C)O
B4: analog no. 36 (peptide)
peptide: Myristoyl-[Nle]ETRTPDINPAWYTGRGIRPVGRF-NH2
SMILES: CCCCCCCCCCCCCC(=O)N[C@@H](CCCC)C(=O)N[C@@H](CCC(=O)O)C(=O)N[C@H](C(=O)N[C@@H](CCCNC(=N)N)C(=O)N[C@H](C(=O)N1CCC[C@H]1C(=O)N[C@@H](CC(=O)O)C(=O)N[C@H](C(=O)N[C@@H](CC(N)=O)C(=O)N1CCC[C@H]1C(=O)N[C@@H](C)C(=O)N[C@@H](Cc1c[nH]c2ccccc12)C(=O)N[C@@H](Cc1ccc(O)cc1)C(=O)N[C@H](C(=O)NCC(=O)N[C@@H](CCCNC(=N)N)C(=O)NCC(=O)N[C@H](C(=O)N[C@@H](CCCNC(=N)N)C(=O)N1CCC[C@H]1C(=O)N[C@H](C(=O)NCC(=O)N[C@@H](CCCNC(=N)N)C(=O)N[C@@H](Cc1ccccc1)C(N)=O)C(C)C)[C@@H](C)CC)[C@@H](C)O)[C@@H](C)CC)[C@@H](C)O)[C@@H](C)O
notes: lipidized shortened PrRP31 analog; also called 36 short
B5: analog no. 56 (peptide)
peptide: SETHEHSMEIK([γGlu-Palmitoyl])TPDINPAWYASRGIRPVGRF-NH2
modifications: N-terminus assumed
SMILES: CCCCCCCCCCCCCCCC(=O)N[C@@H](CCC(=O)NCCCC[C@H](NC(=O)[C@@H](NC(=O)[C@H](CCC(=O)O)NC(=O)[C@H](CCSC)NC(=O)[C@H](CO)NC(=O)[C@H](Cc1c[nH]cn1)NC(=O)[C@H](CCC(=O)O)NC(=O)[C@H](Cc1c[nH]cn1)NC(=O)[C@@H](NC(=O)[C@H](CCC(=O)O)NC(=O)[C@@H](N)CO)[C@@H](C)O)[C@@H](C)CC)C(=O)N[C@H](C(=O)N1CCC[C@H]1C(=O)N[C@@H](CC(=O)O)C(=O)N[C@H](C(=O)N[C@@H](CC(N)=O)C(=O)N1CCC[C@H]1C(=O)N[C@@H](C)C(=O)N[C@@H](Cc1c[nH]c2ccccc12)C(=O)N[C@@H](Cc1ccc(O)cc1)C(=O)N[C@@H](C)C(=O)N[C@@H](CO)C(=O)N[C@@H](CCCNC(=N)N)C(=O)NCC(=O)N[C@H](C(=O)N[C@@H](CCCNC(=N)N)C(=O)N1CCC[C@H]1C(=O)N[C@H](C(=O)NCC(=O)N[C@@H](CCCNC(=N)N)C(=O)N[C@@H](Cc1ccccc1)C(N)=O)C(C)C)[C@@H](C)CC)[C@@H](C)CC)[C@@H](C)O)C(=O)O
B6: analog no. 59 (peptide)
peptide: SRTHRHSMEIKTPDINPAWYASRGIRPVGRF
modifications: (N-palm(N-POE)) at the N-terminus; K(N-palm(N-POE)) at residue 11; C-terminal amide
B7: analog no. 35 (peptide)
peptide: [Nle]ETRTPDINPAWYTGRGIRPVGRF-NH2
modifications: N-terminus assumed
SMILES: CCCC[C@H](N)C(=O)N[C@@H](CCC(=O)O)C(=O)N[C@H](C(=O)N[C@@H](CCCNC(=N)N)C(=O)N[C@H](C(=O)N1CCC[C@H]1C(=O)N[C@@H](CC(=O)O)C(=O)N[C@H](C(=O)N[C@@H](CC(N)=O)C(=O)N1CCC[C@H]1C(=O)N[C@@H](C)C(=O)N[C@@H](Cc1c[nH]c2ccccc12)C(=O)N[C@@H](Cc1ccc(O)cc1)C(=O)N[C@H](C(=O)NCC(=O)N[C@@H](CCCNC(=N)N)C(=O)NCC(=O)N[C@H](C(=O)N[C@@H](CCCNC(=N)N)C(=O)N1CCC[C@H]1C(=O)N[C@H](C(=O)NCC(=O)N[C@@H](CCCNC(=N)N)C(=O)N[C@@H](Cc1ccccc1)C(N)=O)C(C)C)[C@@H](C)CC)[C@@H](C)O)[C@@H](C)CC)[C@@H](C)O)[C@@H](C)O
notes: shortened PrRP31 analog; also called 35 short
B8: analog no. 37 (peptide)
peptide: QHSMETRTPDINPAWYTGRGIRPVGRF-NH2
notes: shortened PrRP31 analog; also called 37 short
B9: analog no. 38 (peptide)
peptide: Myristoyl-QHSMETRTPDINPAWYTGRGIRPVGRF-NH2
SMILES: CCCCCCCCCCCCCC(=O)N[C@@H](CCC(N)=O)C(=O)N[C@@H](Cc1c[nH]cn1)C(=O)N[C@@H](CO)C(=O)N[C@@H](CCSC)C(=O)N[C@@H](CCC(=O)O)C(=O)N[C@H](C(=O)N[C@@H](CCCNC(=N)N)C(=O)N[C@H](C(=O)N1CCC[C@H]1C(=O)N[C@@H](CC(=O)O)C(=O)N[C@H](C(=O)N[C@@H](CC(N)=O)C(=O)N1CCC[C@H]1C(=O)N[C@@H](C)C(=O)N[C@@H](Cc1c[nH]c2ccccc12)C(=O)N[C@@H](Cc1ccc(O)cc1)C(=O)N[C@H](C(=O)NCC(=O)N[C@@H](CCCNC(=N)N)C(=O)NCC(=O)N[C@H](C(=O)N[C@@H](CCCNC(=N)N)C(=O)N1CCC[C@H]1C(=O)N[C@H](C(=O)NCC(=O)N[C@@H](CCCNC(=N)N)C(=O)N[C@@H](Cc1ccccc1)C(N)=O)C(C)C)[C@@H](C)CC)[C@@H](C)O)[C@@H](C)CC)[C@@H](C)O)[C@@H](C)O
notes: lipidized shortened PrRP31 analog; also called 38 short

Key:
[1] = target: T1, human PrRP receptor GPR10 (human, UniProt P49683 1-370); experiment: competition with 125I-human PrRP31, CHO cells with human GPR10
T1 construct: whole, on cells; also called GPR10 human receptor transfected in CHO cells; human GPR10 receptor
T1 sequence (looked up): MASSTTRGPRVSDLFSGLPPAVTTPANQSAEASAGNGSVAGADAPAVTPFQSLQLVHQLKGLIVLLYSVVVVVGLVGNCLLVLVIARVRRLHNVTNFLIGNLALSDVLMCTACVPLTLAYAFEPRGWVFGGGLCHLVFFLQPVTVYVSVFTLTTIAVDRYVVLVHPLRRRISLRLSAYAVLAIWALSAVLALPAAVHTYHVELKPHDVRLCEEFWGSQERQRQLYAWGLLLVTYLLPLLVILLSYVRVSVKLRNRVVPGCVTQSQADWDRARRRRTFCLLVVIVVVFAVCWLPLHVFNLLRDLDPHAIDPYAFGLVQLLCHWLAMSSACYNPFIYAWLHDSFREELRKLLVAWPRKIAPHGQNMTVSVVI

[2] = target: T2, rat PrRP receptor in RC-4B/C cells (rat, UniProt Q64121 1-370); experiment: competition with 125I-rat PrRP31, RC-4B/C cells
T2 construct: whole, on cells; endogenous receptor of RC-4B/C cells (ATCC); also called rat receptor; GPR10 receptor expressed in rat hypophyseal cells
T2 sequence (looked up): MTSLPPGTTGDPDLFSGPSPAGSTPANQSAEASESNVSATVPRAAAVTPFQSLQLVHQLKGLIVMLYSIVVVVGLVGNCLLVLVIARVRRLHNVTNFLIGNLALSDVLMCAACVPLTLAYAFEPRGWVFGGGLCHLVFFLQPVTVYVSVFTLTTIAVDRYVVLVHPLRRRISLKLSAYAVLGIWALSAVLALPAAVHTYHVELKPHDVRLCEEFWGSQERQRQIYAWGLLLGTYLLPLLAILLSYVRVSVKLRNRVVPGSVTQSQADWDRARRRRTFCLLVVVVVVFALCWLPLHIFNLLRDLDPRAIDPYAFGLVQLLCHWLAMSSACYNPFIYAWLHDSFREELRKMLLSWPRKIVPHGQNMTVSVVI
Method in brief: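 Incubation 60 min at room temperature; cells solubilized in 0.1 mol/l NaOH and bound radioactivity γ-counted. Run in duplicate, repeated at least three times.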

Binder | % of PrRP31 [1] | Ki [1] | % of PrRP31 [2] | Ki [2]
B1 | 161% | 2.41 nM | 822% | 0.6 nM
B2 | 201% | 1.94 nM | 530% | 0.93 nM
B3 | 129% | 3.02 nM | 1200% | 0.41 nM
B4 | 71% | 5.48 nM | 1100% | 0.45 nM
SRTHRHSMEIK([GABA-Palmitoyl])TPDINPAWYASRGIRPVGRF-NH2 [analog no. 53] | 42.5% | 9.19 nM | 190% | 1.26 nM
B5 | 57% | 5.66 nM | 57% | 4.23 nM
B6 | 12% | 32.4 nM | 85% | 2.82 nM
SETHRHSMEIK([γGlu-Palmitoyl])TPDINPAWYASRGIRPVGRF-NH2 [analog no. 55] | 83% | 4.72 nM | 236% | 
SRTHRHSMEIKTPDINPAWYASRGIRPVGRF-NH2 (not fully specified (residue 11)) [analog no. 57] | 103% | 3.79 nM | 663% | 0.36 nM
B7 | 113% | 3.44 nM | 168% | 2.94 nM
B8 | 66% | 5.92 nM | 189% | 2.61 nM
B9 | 56% | 6.93 nM | 1330% | 0.37 nM
